Experimental data: IntAct's records for PubMed 23603394

B1: PH and SEC7 domain-containing protein 1 (Homo sapiens), A5PKW4 (parent)
chain: MAQGAMRFCSEGDCAISPPRCPRRWLPEGPVPQSPPASMYGSTGSLLRRVAGPGPRGRELGRVTAPCTPLRGPPSPRVAPSPWAPSSPTGQPPPGAQSSVVIFRFVEKASVRPLNGLPAPGGLSRSWDLGGVSPPRPTPALGPGSNRKLRLEASTSDPLPARGGSALPGSRNLVHGPPAPPQVGADGLYSSLPNGLGGPPERLATLFGGPADTGFLNQGDTWSSPREVSSHAQRIARAKWEFFYGSLDPPSSGAKPPEQAPPSPPGVGSRQGSGVAVGRAAKYSETDLDTVPLRCYRETDIDEVLAEREEADSAIESQPSSEGPPGTAYPPAPRPGPLPGPHPSLGSGNEDEDDDEAGGEEDVDDEVFEASEGARPGSRMPLKSPVPFLPGTSPSADGPDSFSCVFEAILESHRAKGTSYTSLASLEALASPGPTQSPFFTFELPPQPPAPRPDPPAPAPLAPLEPDSGTSSAADGPWTQRGEEEEAEARAKLAPGREPPSPCHSEDSLGLGAAPLGSEPPLSQLVSDSDSELDSTERLALGSTDTLSNGQKADLEAAQRLAKRLYRLDGFRKADVARHLGKNNDFSKLVAGEYLKFFVFTGMTLDQALRVFLKELALMGETQERERVLAHFSQRYFQCNPEALSSEDGAHTLTCALMLLNTDLHGHNIGKRMTCGDFIGNLEGLNDGGDFPRELLKALYSSIKNEKLQWAIDEEELRRSLSELADPNPKVIKRISGGSGSGSSPFLDLTPEPGAAVYKHGALVRKVHADPDCRKTPRGKRGWKSFHGILKGMILYLQKEEYKPGKALSETELKNAISIHHALATRASDYSKRPHVFYLRTADWRVFLFQAPSLEQMQSWITRINVVAAMFSAPPFPAAVSSQKKFSRPLLPSAATRLSQEEQVRTHEAKLKAMASELREHRAAQLGKKGRGKEAEEQRQKEAYLEFEKSRYSTYAALLRVKLKAGSEELDAVEAALAQAGSTEDGLPPSHSSPSLQPKPSSQPRAQRHSSEPRPGAGSGRRKP

Variants of: B1
Conditions: with arf6_human ARF6, P62330
arf6_human ARF6, P62330, sequence (P62330 whole entry): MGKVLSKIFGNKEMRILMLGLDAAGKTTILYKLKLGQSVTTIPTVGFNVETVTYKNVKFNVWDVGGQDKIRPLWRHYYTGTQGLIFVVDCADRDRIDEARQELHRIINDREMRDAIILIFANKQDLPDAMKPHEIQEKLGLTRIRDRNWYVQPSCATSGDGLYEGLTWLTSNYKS

effect of a mutation on the interaction | Variant
disrupting interaction | E621K

Variants of: B1
Conditions: with arf6_human ARF6, P62330
Remark: another data set of the same source

effect of a mutation on the interaction | Variant
decreasing interaction | E621K

Variants of: B1
Conditions: with arf6_human ARF6, P62330
Remark: another data set of the same source

effect of a mutation on the interaction | Variant
decreasing interaction | K766E
decreasing interaction | R765E
